Tests used:
[1] = molecular target: His6-importin α-CyPet / S-His6-importin β (UniProt P52292); assay: FRET or BRET
[2] = molecular target: GFP-XCTK2 (full-length, wild type) (Xenopus) (UniProt P79955); assay: co-sedimentation
[3] = molecular target: 6HisGFP-XCTK2-MBD2^mut (Xenopus) (UniProt P79955); assay: co-sedimentation
[4] = molecular target: doubly stabilized microtubules (GMPCPP and paclitaxel) polymerized from cycled bovine tubulin (bovine, UniProt Q6B856 1-445); assay: co-sedimentation

Sequence of importin α-His6 / S-His6-importin β (Q14974 whole entry, one chain of several): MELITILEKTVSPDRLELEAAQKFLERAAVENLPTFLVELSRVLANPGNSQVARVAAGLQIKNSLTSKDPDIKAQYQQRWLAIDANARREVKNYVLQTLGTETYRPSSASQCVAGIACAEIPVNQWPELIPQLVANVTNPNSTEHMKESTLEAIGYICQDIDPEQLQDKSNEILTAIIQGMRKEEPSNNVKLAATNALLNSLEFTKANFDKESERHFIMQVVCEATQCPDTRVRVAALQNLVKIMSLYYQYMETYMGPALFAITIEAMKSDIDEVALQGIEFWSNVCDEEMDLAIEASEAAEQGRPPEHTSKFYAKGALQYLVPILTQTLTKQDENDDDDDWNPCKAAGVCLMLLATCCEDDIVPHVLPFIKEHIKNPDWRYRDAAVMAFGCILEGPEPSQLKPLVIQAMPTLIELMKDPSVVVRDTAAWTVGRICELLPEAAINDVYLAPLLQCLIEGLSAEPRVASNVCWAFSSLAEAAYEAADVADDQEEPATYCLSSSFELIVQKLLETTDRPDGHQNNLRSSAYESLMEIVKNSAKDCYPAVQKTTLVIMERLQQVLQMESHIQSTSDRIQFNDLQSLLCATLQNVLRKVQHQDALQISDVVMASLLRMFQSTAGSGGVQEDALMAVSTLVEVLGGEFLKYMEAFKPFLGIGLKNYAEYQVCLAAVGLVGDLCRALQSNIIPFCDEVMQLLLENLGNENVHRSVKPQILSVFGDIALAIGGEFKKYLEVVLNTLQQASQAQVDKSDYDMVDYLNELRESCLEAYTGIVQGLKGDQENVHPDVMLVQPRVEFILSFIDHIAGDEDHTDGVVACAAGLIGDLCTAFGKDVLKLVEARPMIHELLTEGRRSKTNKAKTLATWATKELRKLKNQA
Sequence of GFP-XCTK2 (full-length, wild type) (Xenopus) (P79955 whole entry): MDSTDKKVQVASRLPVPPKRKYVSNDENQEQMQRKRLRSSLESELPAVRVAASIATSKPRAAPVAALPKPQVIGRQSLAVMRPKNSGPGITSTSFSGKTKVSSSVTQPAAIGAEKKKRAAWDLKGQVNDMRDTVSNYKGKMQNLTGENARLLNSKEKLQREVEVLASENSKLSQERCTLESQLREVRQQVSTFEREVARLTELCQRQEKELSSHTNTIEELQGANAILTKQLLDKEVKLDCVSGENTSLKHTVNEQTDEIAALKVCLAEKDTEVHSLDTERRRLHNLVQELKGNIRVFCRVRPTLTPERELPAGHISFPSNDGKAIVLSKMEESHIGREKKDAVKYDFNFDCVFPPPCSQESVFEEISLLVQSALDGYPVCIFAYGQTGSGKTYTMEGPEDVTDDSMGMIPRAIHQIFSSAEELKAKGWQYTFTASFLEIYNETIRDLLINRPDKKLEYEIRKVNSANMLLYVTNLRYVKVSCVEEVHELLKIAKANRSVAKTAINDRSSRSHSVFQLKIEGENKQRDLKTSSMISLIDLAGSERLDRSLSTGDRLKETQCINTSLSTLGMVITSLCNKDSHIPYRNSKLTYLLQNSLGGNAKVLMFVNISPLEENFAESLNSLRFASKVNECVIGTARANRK

Row | fold higher apparent Kd than YPet-Tail [1] [fold] | stoichiometry N [4] [per tubulin dimer] | Molecule | other results
1 | 8 | – | YPet-Tail C3 (from UniProt P79955 80-120) (domain or fragment) | –
2 | 8 | – | YPet-Tail C2 (from UniProt P79955 62-120) (domain or fragment) | –
3 | – | – | importin α-His6 / S-His6-importin β (from UniProt P52292 1-529; Q14974 1-876) (complex) | percent reduction of MT binding by 0.4 µM importin α/β [2]: 64%; percent reduction of MT binding by 0.4 µM importin α/β [3]: 43%
4 | – | 1.1 | YPet-Tail C2 (domain or fragment, Xenopus, UniProt P79955 62-120, looked up) APVAALPKPQVIGRQSLAVMRPKNSGPGITSTSFSGKTKVSSSVTQPAAIGAEKKKRAA | –
5 | – | 1.1 | YPet-Tail N3 (domain or fragment, Xenopus, UniProt P79955 2-79, looked up) DSTDKKVQVASRLPVPPKRKYVSNDENQEQMQRKRLRSSLESELPAVRVAASIATSKPRAAPVAALPKPQVIGRQSLA | fold higher apparent MT affinity than YPet-Tail C2 [4]: ~2 fold
6 | – | – | YPet-Tail N3-MBD1^mut (domain or fragment) DSTDKKVQVASRLPVPPAAAYVSNDENQEQMQAAALRSSLESELPAVRVAASIATSKPRAAPVAALPKPQVIGRQSLA | fold higher Kd than YPet-Tail N3 [4]: 10 fold

Source: PMC12206513 (Molecular Biology of the Cell, 2025)
